Target: T1, His:AtBPM3 (Arabidopsis thaliana (Mouse-ear cress), UniProt O22286)
T1 chain: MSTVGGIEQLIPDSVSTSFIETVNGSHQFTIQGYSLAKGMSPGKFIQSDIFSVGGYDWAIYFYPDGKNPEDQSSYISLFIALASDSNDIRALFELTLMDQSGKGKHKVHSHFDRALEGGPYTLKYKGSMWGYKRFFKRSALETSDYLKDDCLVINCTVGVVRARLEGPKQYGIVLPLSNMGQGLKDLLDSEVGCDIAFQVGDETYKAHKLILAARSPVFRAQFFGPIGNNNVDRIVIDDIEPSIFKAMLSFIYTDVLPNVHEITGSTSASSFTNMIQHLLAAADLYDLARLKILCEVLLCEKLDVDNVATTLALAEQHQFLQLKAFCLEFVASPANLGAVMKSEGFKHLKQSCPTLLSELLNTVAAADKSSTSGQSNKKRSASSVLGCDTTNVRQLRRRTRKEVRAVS
Assay: pulldown

binding result: binds
B1: GST:AtRAP2.4 (protein)
chain: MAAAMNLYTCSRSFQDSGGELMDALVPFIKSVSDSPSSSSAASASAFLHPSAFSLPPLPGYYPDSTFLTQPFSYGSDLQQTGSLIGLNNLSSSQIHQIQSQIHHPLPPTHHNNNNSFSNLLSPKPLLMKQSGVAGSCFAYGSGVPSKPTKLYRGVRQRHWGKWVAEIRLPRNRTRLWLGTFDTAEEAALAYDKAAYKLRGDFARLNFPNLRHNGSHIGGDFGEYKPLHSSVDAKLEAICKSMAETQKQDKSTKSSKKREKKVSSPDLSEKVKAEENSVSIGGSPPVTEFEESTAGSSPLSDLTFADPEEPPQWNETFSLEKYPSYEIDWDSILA

From article PMC6523098 (2019)
